Measured values as given in patent US20210221875A1 (Chugai, published 2021).
Positions count from the first letter of the chain named.

T1: soluble human IL-6R (human, UniProt P08887 20-357)
T1 construct: also called hsIL-6R; recombinant human IL6R
T1 sequence: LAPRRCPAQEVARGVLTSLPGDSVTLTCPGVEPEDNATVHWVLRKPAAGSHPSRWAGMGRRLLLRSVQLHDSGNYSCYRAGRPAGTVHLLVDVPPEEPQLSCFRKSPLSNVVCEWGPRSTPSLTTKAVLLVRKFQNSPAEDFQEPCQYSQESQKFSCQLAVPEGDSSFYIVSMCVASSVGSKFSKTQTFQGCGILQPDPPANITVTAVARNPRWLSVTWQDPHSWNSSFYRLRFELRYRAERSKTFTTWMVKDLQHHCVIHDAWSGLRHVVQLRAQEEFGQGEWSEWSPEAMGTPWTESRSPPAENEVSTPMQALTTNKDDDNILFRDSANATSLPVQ

B1: GRA0105Hg-SG1/GRA0105Lg-SK2 (antibody, human IgG1, kappa)
heavy: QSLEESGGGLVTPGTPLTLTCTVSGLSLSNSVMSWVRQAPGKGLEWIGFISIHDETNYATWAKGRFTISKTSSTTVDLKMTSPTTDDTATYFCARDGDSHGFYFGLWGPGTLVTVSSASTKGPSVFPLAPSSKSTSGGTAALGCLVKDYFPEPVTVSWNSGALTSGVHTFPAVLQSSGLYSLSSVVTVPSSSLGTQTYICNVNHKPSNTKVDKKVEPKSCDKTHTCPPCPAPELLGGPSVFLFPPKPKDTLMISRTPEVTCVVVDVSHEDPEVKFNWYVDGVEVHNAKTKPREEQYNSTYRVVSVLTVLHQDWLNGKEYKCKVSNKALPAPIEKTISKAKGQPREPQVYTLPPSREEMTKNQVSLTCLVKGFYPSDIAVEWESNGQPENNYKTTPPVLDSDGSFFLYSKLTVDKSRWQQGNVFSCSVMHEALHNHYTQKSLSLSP
light: AQVLTQTPSPVSAAVGGTVTINCQASQSVYNKNNLAWYQQKPGQPPKLLIYDASKLASGVPSRFKGGGSGTHFTLTISGVQCDDAATYYCQGTYYSSGWYNTFGGGTKVEIKRTVAAPSVFIFPPSDEQLKSGTASVVCLLNNFYPREAKVQWKVDNALQSGNSQESVTEQDSKDCTYSLSSTLTLSKADYEKHKVYACEVTHQGLSSPVTKSFNRGEC
notes: full length antibody
B2: GRA0124Hc0626-SG1/GRA0124Lc0544-SK2021 (antibody, human IgG1, kappa)
heavy: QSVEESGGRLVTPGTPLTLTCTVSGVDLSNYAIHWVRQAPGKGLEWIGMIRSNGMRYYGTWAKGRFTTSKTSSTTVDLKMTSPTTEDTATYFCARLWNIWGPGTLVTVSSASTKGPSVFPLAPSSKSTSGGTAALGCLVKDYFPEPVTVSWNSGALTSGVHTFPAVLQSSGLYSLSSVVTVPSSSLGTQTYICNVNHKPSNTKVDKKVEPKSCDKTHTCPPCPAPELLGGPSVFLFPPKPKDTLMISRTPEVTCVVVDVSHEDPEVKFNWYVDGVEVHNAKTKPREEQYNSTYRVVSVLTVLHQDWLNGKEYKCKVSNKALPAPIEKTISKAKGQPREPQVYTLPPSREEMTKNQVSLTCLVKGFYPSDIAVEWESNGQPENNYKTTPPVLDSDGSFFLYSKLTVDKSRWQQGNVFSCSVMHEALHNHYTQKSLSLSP
light: AQVLTQTPSSTSVAVGGTVTINCQSSPSVYLNLLAWYQQKPGQPPKLLIYSASFLQSGVPPRFSGSGSGTQFTLTISGVQCADAATYYCAGVYSNNIYTFGGGTKVEIKETVAAPSVFIFPPSDEQLKSGTASVVCLLNNFYPREAEVQWKVDNALQSGNSQESVTEQDSKDCTYSLSSTLTLSKADYEKHKVYACEVTHQGLSSPVTKSFNRGEC
notes: the row with this full length name is used
B3: GRA0124Hc1075-SG1/GRA0124Lc0952-SK2 (antibody, human IgG1, kappa, V domains shown)
VH: QSVEESGGDLVTPGTPLTLTCTVDGVDLSNYAIHWVRQAPGKGLEWIGMIRSNGMRYYGTWAKGRFTTSKTSSTTVDLKMTSPTTEDTATYFCARLWNIWGPGTLVTVSS
VL: AQVLDQTPSSTSVAVGGTVTINCQSSPSVYLNLLAWYQQKPGQPPKLLIYSASFLQSDVPDRFSGSGDGDQFDLDIDGVQCADAATYYCAGVYSNNIYTFGGGTKVEIKR
notes: full length antibody
B4: GRA0124Hc0626-SG1286/GRA0124Lc0544-SK2027 (antibody, human IgG1, kappa)
heavy: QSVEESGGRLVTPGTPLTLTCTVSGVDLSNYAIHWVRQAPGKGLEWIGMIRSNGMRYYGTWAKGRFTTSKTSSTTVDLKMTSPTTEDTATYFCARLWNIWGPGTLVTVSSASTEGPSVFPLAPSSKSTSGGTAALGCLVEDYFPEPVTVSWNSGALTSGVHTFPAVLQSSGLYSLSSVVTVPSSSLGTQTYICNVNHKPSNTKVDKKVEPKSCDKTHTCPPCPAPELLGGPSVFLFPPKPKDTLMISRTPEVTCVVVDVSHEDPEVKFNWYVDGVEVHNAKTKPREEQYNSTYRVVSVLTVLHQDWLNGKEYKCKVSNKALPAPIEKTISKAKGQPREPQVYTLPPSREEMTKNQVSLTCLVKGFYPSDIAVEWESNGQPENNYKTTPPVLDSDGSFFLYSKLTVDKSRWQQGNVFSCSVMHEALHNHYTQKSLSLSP
light: B2 light with K171E
notes: full length antibody
B5: GRA0124Hc0626-SG1286/GRA0124Lc0544-SK2 (antibody, human IgG1, kappa)
heavy: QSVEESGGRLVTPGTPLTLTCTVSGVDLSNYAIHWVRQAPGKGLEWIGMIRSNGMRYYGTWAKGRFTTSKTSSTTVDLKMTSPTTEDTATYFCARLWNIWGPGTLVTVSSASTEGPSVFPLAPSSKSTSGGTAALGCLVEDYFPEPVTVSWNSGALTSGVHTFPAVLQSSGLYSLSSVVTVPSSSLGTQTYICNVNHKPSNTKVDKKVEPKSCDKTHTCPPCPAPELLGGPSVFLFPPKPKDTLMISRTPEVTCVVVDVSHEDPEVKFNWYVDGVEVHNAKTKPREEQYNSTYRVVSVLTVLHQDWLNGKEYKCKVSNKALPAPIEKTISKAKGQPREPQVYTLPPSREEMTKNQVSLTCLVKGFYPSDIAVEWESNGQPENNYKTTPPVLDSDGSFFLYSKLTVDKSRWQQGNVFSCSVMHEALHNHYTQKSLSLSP
light: B2 light with E110R, E147K
B6: GRA0124Hc0626-SG1286/GRA0124Lc0544-SK2025 (antibody, human IgG1, kappa)
heavy: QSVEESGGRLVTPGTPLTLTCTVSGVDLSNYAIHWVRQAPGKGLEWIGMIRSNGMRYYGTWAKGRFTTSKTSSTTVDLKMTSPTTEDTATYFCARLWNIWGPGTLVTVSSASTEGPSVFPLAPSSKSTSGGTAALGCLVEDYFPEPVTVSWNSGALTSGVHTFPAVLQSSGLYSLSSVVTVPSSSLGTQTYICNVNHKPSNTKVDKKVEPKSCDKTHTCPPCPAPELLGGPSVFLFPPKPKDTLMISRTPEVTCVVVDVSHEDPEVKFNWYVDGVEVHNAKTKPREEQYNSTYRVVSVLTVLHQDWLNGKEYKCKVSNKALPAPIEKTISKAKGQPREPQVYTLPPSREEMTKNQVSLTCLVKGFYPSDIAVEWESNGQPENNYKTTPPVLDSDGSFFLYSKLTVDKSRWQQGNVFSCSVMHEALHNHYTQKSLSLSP
light: B2 light with E110R, K171E
B7: GRA0124Hc0626-SG1/GRA0124Lc0951-SK2 (antibody, human IgG1, kappa, V domains shown)
VH: B3 VH with D9R, D24S
VL: B3 VL with D5T
notes: full length antibody
B8: GRA0124Hc0626-SG1265/GRA0124Lc0544-SK2 (antibody, human IgG1, kappa)
heavy: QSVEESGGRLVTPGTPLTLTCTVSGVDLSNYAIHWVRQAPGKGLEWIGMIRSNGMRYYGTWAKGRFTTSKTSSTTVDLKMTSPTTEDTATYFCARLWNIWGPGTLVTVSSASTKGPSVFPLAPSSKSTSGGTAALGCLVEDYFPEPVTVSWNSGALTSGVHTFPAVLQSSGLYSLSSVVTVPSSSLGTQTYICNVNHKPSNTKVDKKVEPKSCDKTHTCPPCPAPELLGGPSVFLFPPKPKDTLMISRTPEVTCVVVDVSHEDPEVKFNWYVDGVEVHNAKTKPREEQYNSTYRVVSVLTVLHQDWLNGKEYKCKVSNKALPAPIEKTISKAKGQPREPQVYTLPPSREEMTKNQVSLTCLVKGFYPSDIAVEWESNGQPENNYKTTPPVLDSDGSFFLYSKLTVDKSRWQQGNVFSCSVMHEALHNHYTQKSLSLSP
light: B2 light with E110R, E147K
notes: full length antibody
B9: GRA0124Hc0626-SG1265/GRA0124Lc0544-SK2021 (antibody, human IgG1, kappa)
heavy: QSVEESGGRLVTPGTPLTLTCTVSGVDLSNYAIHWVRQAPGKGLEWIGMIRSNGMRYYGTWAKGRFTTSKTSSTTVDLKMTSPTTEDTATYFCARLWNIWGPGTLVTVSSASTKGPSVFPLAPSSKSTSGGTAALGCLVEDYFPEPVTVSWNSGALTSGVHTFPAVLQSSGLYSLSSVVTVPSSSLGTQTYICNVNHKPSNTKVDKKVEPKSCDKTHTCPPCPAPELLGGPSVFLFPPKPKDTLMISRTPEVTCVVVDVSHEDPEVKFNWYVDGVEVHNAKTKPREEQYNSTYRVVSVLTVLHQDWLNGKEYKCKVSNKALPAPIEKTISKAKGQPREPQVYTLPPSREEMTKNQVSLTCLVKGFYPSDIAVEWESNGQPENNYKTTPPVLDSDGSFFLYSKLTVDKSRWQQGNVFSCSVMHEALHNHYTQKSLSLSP
light: B2 light
notes: the L chain name is printed with both 563 and 564 (564 stands in the row of the Fab SG1265/SK2021)
B10: GRA0124Hc0626-SG1/GRA0124Lc0694-SK2 (antibody, human IgG1, kappa, V domains shown)
VH: B3 VH with D9R, D24S
VL: B3 VL with D5T, F54A, D58G, D61P, D68S, D70T, D73T, D75T, D77S
notes: full length antibody
B11: GRA1013Hhz-SG1/GRA1013Lqz-SK2 (antibody, human IgG1, kappa)
heavy: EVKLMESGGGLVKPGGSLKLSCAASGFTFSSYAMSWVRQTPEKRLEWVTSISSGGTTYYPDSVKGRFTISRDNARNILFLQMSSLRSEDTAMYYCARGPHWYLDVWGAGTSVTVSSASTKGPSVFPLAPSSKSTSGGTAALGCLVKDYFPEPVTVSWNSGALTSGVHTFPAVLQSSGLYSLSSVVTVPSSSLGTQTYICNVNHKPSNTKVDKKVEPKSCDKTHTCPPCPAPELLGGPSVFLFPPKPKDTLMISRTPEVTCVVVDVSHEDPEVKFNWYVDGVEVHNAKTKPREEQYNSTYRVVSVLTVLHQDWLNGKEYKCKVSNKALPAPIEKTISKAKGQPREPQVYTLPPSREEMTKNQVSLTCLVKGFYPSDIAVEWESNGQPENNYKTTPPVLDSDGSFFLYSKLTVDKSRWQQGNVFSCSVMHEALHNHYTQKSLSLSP
light: DILMTQTPLSLPVSLGDQASISCRSSQSIVHSNGNTYLEWYLQKPGQSPKLLIYKVSNRFSGVPDRFSGSGSGTDFTLKISRVEAEDLGVYYCFQGSHLPLTFGAGTKLELKRTVAAPSVFIFPPSDEQLKSGTASVVCLLNNFYPREAKVQWKVDNALQSGNSQESVTEQDSKDCTYSLSSTLTLSKADYEKHKVYACEVTHQGLSSPVTKSFNRGEC
notes: full length antibody
B12: 20A11-G1m/VK1-39-k0MT (antibody, human IgG1, kappa, V domains shown)
VH: EVQLVESGGGLVQPGGSLRLSCAASGSVFKINVMAWYRQAPGKGRELVAGIISGGSTSYADSVKGRFTISRDNAKNTLYLQMNSLRPEDTAVYYCAFITTESDYDLGRRYWGQGTLVTVSS
VL: DIQMTQSPSSLSASVGDRVTITCRASQSISSYLNWYQQKPGKAPKLLIYAASSLQSGVPSRFSGSGSGTDFTLTISSLQPEDFATYYCLQFDSYPLTFGGGTKVEIKR
notes: IgG antibody-like molecule: anti-IL6R VHH 20A11 fused with human IgG1 CH1-hinge-CH2-CH3
B13: 20A11-G1m/VL1-40-lamL (antibody, human IgG1, lambda, V domains shown)
VH: B12 VH
VL: QSVLTQPPSVSGAPGQRVTISCTGSSSNIGAGYDVHWYQQLPGTAPKLLIYGNSNRPSGVPDRFSGSKSGTSASLAITGLQAEDEADYYCQSYDNSLNAVVFGGGTKLTVLG
notes: IgG antibody-like molecule with VHH 20A11 in place of VH
B14: 20A11-G1m/VL2-14-lamL (antibody, human IgG1, lambda, V domains shown)
VH: B12 VH
VL: QSALTQPASVSGSPGQSITISCTGTSSDVGGYNYVSWYQQHPGKAPKLMIYEVSNRPSGVSNRFSGSKSGNTASLTISGLQAEDEADYYCSSYRSGYTLVVFGGGTKLTVLG
notes: as for B13
B15: 20A11-G1m/VL1-44-lamL (antibody, human IgG1, lambda, V domains shown)
VH: B12 VH
VL: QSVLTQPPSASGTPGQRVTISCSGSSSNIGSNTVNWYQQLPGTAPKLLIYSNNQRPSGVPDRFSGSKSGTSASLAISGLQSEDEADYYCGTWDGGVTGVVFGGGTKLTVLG
notes: as for B13
B16: 20A11-G1m/VL3-21-lamL (antibody, human IgG1, lambda, V domains shown)
VH: B12 VH
VL: SYVLTQPPSVSVAPGKTARITCGGNNIGSKSVHWYQQKPGQAPVLVIYYDSDRPSGIPERFSGSNSGNTATLTISRVEAGDEADYYCQAWDSSTDVVFGGGTKLTVLG
notes: as for B13
B17: 20A11-G1m/VK2-28-k0MT (antibody, human IgG1, kappa, V domains shown)
VH: B12 VH
VL: not shown
notes: as for B13
B18: 20A11hu-G1m/VK1-39-k0MT (antibody, human IgG1, kappa, V domains shown)
VH: B12 VH with Y37V, R45L, L47W
VL: B12 VL
notes: IgG antibody-like molecule
B19: 20A11hu-G1m/VK2-28-k0MT (antibody, human IgG1, kappa, V domains shown)
VH: B12 VH with Y37V, R45L, L47W
VL: not shown
notes: IgG antibody-like molecule with VHH 20A11hu in place of VH
B20: 20A11hu-G1m/VL2-14-lamL (antibody, human IgG1, lambda, V domains shown)
VH: B12 VH with Y37V, R45L, L47W
VL: B14 VL
notes: as for B19
B21: 20A11hu-G1m/VL1-44-lamL (antibody, human IgG1, lambda, V domains shown)
VH: B12 VH with Y37V, R45L, L47W
VL: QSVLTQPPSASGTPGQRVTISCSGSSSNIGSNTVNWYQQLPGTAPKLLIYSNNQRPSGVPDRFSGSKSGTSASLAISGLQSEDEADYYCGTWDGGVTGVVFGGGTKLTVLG
notes: as for B19
B22: 20A11hu-G1m/VL1-40-lamL (antibody, human IgG1, lambda, V domains shown)
VH: B12 VH with Y37V, R45L, L47W
VL: B13 VL
notes: as for B19

These binders were tested against T2, biotin-rabbit aggrecan G1-IGD-G2-3xFlag (rabbit, UniProt Q28670 17-683, biotin on the N-terminal Avi-tag (BirA co-expression)) (assay: SPR (Biacore T200), 37 C, pH 7.4, antibody captured, Avi RbG1G2 3Flag as analyte, 1:1 model;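 further: antibodies captured at roughly 200 RU on a CM4 or C1 chip through anti-human IgG Fc or Protein A/G, in sodium phosphate NaCl buffer with Tween 20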).
T2 construct: three tandem Flag-tags at the C-terminus and Avi-tag at the N-terminus; also called biotinylated Avi-rabbit aggrecan G1-IGD-G2-3xFLAG; Avi RbG1G2 3FLAG
Method: Anti-Human IgG (Fc) antibody was immobilized onto all flow cells of a CM4 sensor chip using Human antibody capture kit (GE Healthcare). Protein A/G was immobilized onto all flow cells of a CM4 or C1 sensor chip using amine coupling kit (GE Healthcare). Antibodies and analytes were prepared in buffer (50 mM Sodium Phosphate, 150 mM NaCl, 0.02% Tween 20, 0.005% NaN3, pH 7.4 or 20 mM Sodium Phosphate, 150 mM NaCl, 0.05% Tween20, 0.005% NaN₃, pH 7.4). Each antibody was captured onto the sensor surface by Anti-Human IgG (Fc) antibody or Protein A/G. Antibody capture levels were aimed at 200 resonance unit (RU). […] Sensor surface was regenerated each cycle with 3 M MgCl₂ or 10 mM Glycine-HCl, pH 1.5.

| Kd | koff | kon | Binder |
| --- | --- | --- | --- |
| 3.28 nM | 0.000455 s⁻¹ | 139000 M⁻¹ s⁻¹ | B1 |
| 13.4 nM | 0.000718 s⁻¹ | 53500 M⁻¹ s⁻¹ | B2 |
| 3.68 nM | 0.000267 s⁻¹ | 72700 M⁻¹ s⁻¹ | B3 |
| 15.1 nM | 0.00078 s⁻¹ | 51700 M⁻¹ s⁻¹ | B4 |
| 17 nM | 0.000883 s⁻¹ | 51900 M⁻¹ s⁻¹ | B5 |
| 15.2 nM | 0.000786 s⁻¹ | 51900 M⁻¹ s⁻¹ | B6 |
| 4.04 nM | 0.000321 s⁻¹ | 79400 M⁻¹ s⁻¹ | B7 |
| 15.9 nM | 0.000837 s⁻¹ | 52700 M⁻¹ s⁻¹ | B8 |
| 14.4 nM | 0.000757 s⁻¹ | 52700 M⁻¹ s⁻¹ | B9 |
| 77.5 nM | 0.00202 s⁻¹ | 26100 M⁻¹ s⁻¹ | B10 |
| 256 nM | 0.0147 s⁻¹ | 57600 M⁻¹ s⁻¹ | B11 |

What follows are binders tested against T1, soluble human IL-6R (assay: BLI (Octet), in the same way as in Example 3).

| binding result | Binder |
| --- | --- |
| binds | B12 |
| binds | B13 |
| binds | B14 |
| binds | B15 |
| binds | B16 |
| binds | B17 |

What follows are binders tested against T1, soluble human IL-6R (assay: BLI (Octet), in the same way as in Example 3, 30 C or 25 C).

| binding result | Binder |
| --- | --- |
| no binding | B18 |
| no binding | B19 |
| no binding | B20 |
| no binding | B21 |
| no binding | B22 |
